Molecular target: T1, Ac-…-NH2 peptide (P. falciparum)
T1 sequence (peptide, N-terminal acetyl group; C-terminal NH2 group (amide)): NPNVDPNANPNV
Assay: ITC; MicroCal Auto-iTC200; triplicate (or duplicate) experiments; details in SI

- Kd: 12.1 µM
- dH: -9.66 kcal/mol
- stoichiometry N: 1.72
B1: Fab317 (Fab, V domains shown)
VH: QMQLVESGGGVVQPGRSLRLSCTASGFTFSTYAMHWVRQSPGQGLQWVAVISYHSTNKYYEDSVRGRFTISRDNSKNTLYLQMNSLRAEDTAVYYCARDGYSSSFFDFWGQGTLVTVSS
VL: DIQMTQSPSTLSASVGDRVAITCRASQSISRWLAWYQQQPGKAPKLLMSGASVLESGVPSRFSGSGSGTEFTLTISSLQPDDFATYYCQHYNSYFVTFGQGTKVEIK
